Kd and dG data for four variants are collected here from paper PMC11189300 (2024).

To fix the notation:
B1: KNL1 residues 2,026–2,342 [human] / Mis12 complex (Mis12C), full length: MIS12, PMF1, NSL1, DSN1 [human] (parent complex)
chain 1: SAQNEREKLQIKIDEMDKILKKIDNCLTEMETETKNLEDEEKNNPVEEWDSEMRAAEKELEQLKTEEEELQRNLLELEVQKEQTLAQIDFMQKQRNRTEELLDQLSLSEWDVVEWSDDQAVFTFVYDTIQLTITFEESVVGFPFLDKRYRKIVDVNFQSLLDEDQAPPSSLLVHKLIFQYVEEKESWKKTCTTQHQLPKMLEEFSLVVHHCRLLGEEIEYLKRWGPNYNLMNIDINNNELRLLFSSSAAFAKFEITLFLSAYYPSVPLPSTIQNHVGNTSQDDIATILSKVPLENNYLKNVVKQIYQDLFQDCHFYH
chain 2: MSVDPMTYEAQFFGFTPQTCMLRIYIAFQDYLFEVMQAVEQVILKKLDGIPDCDISPVQIRKCTEKFLCFMKGHFDNLFSKMEQLFLQLILRIPSNILLPEDKCKETPYSEEDFQHLQKEIEQLQEKYKTELCTKQALLAELEEQKIVQAKLKQTLTFFDELHNVGRDHGTSDFRESLVSLVQNSRKLQNIRDNVEKESKRLKIS
chain 3: MAEASSANLGSGCEEKRHEGSSSESVPPGTTISRVKLLDTMVDTFLQKLVAAGSYQRFTDCYKCFYQLQPAMTQQIYDKFIAQLQTSIREEISDIKEEGNLEAVLNALDKIVEEGKVRKEPAWRPSGIPEKDLHSVMAPYFLQQRDTLRRHVQKQEAENQQLADAVLAGRRQVEELQLQVQAQQQAWQALHREQRELVAVLREPE
chain 4: MAGSPELVVLDPPWDKELAAGTESQALVSATPREDFRVRCTSKRAVTEMLQLCGRFVQKLGDALPEEIREPALRDAQWTFESAVQENISINGQAWQEASDNCFMDSDIKVLEDQFDEIIVDIATKRKQYPRKILECVIKTIKAKQEILKQYHPVVHPLDLKYDPDPAPHMENLKCRGETVAKEISEAMKSLPALIEQGEGFSQVLRMQPVIHLQRIHQEVFSSCHRKPDAKPENFITQIETTPTETASRKTSDMVLKRKQTKDCPQRKWYPLRPKKINLDT
chain 5: MTSVTRSEIIDEKGPVMSKTHDHQLESSLSPVEVFAKTSASLEMNQGVSEERIHLGSSPKKGGNCDLSHQERLQSKSLHLSPQEQSASYQDRRQSWRRASMKETNRRKSLHPIHQGITELSRSISVDLAESKRLGCLLLSSFQFSIQKLEPFLRDTKGFSLESFRAKASSLSEELKHFADGLETDGTLQKCFEDSNGKASDFSLEASVAEMKEYITKFSLERQTWDQLLLHYQQEAKEILSRGSTEAKITEVKVEPMTYLGSSQNEVLNTKPDYQKILQNQSKVFDCMELVMDELQGSVKQLQAFMDESTQCFQKVSVQLGKRSMQQLDPSPARKLLKLQLQNPPAIHGSGSGSCQ

In the first assay the parent is B1. Kind of assay: ITC; syringe KNL1^M2; cell Mis12C^WT; parent: 1.56 nM. For orientation: Isothermal titration calorimetry measures the heat released or taken up as one component is titrated into another.
For orientation: Kd means a measure of binding affinity in units of concentration. Turning to chain 1 SAQNEREKLQIKIDEMDKILKKIDNCLTEMETETKNLEDEEKNNPVEEWDSEMRAAEKELEQLKTEEEELQRNLLELEVQKEQTLAQIDFMQKQRNRTEELLDQLSLSEWDVVEWSDDQAVFTFVYDTIQLTITFEESVVGFPFLDKRYRKIVDVNFQSLLDEDQAPPSSLLVHKLIFQYVEEKESWKKTCTTQHQLPKMLEEFSLVVHHCRLLGEEIEYLKRWGPNYNLANIDINNNELRLLFSSWAAAAEFEITLFLSAYYPSVPLPSTIQNHVGNTSQDDIATILSKVPLENNYLKNVVKQIYQDLFQDCHFYH [chain 1 M231A, chain 1 S247W, chain 1 F250A, chain 1 K252E], the Kd came to 109 nM.

A further assay covers variants of B1. Kind of assay: ITC; syringe KNL1^M1; cell Mis12C^WT; parent: 1.56 nM.
As to chain 1 SAQNEREKLQIKIDEMDKILKKIDNCLTEMETETKNLEDEEKNNPVEEWDSEMRAAEKELEQLKTEEEELQRNLLELEVQKEQTLAQIDFMQKQRNRTEELLDQLSLSEWDVVEWSDDQAVFTFVYDTIQLTITFEESVVGFPFLDKRYRKIVDVNFQSLLDEDQAPPSSLLVHKLIFQYVEEKESWKKTCTTQHQLPKMLEEFSLVVHHCRLLGEEIEYLKRWGPNYNLANIDINNNELRLLFSSWAAAAAFEITLFLSAYYPSVPLPSTIQNHVGNTSQDDIATILSKVPLENNYLKNVVKQIYQDLFQDCHFYH [chain 1 M231A, chain 1 S247W, chain 1 F250A, chain 1 K252A], the Kd came to 140 nM.

The variants in another assay derive from B1. Kind of assay: ITC; syringe KNL1^WT; cell Mis12C^M1; parent: -12.
For chain 3 MAEASSANLGSGCEEKRHEGSSSESVPPGTTISRVKLLDTMVDTFLQKLVAAGSYQRFTDCYKCFYQLQPAMTQQIYDKFIAQLQTSIREEISDIKEEGNLEAVLNALDKIVEEGKVRKEPAWRPSGIPEKDLHSVMAPYFLQQRDTLRRHVQKQEAENQQLADAVLAGRRQVEELQLQVQAQQQAWQALHREQAELLAVLREPE chain 5 MTSVTRSEIIDEKGPVMSKTHDHQLESSLSPVEVFAKTSASLEMNQGVSEERIHLGSSPKKGGNCDLSHQERLQSKSLHLSPQEQSASYQDRRQSWRRASMKETNRRKSLHPIHQGITELSRSISVDLAESKRLGCLLLSSFQFSIQKLEPFLRDTKGFSLESFRAKASSLSEELKHFADGLETDGTLQKCFEDSNGKASDFSLEASVAEMKEYITKFSLERQTWDQLLLHYQQEAKEILSRGSTEAKITEVKVEPMTYLGSSQNEVLNTKPDYQKILQNQSKVFDCMEFVMDELQGSVKQLQAFMDESTQCFQKVSVQLGKRSMQQLDPSPARKLLKLQLQNPPAIHGSGSGSCQ [chain 3 R195A, chain 3 V198L, chain 5 L290F], the dG is -10.

The next assay covers variants of B1. Nature of the assay: ITC; syringe KNL1^WT; cell Mis12C^M2; parent: 1.56 nM.
As to chain 3 MAEASSANLGSGCEEKRHEGSSSESVPPGTTISRVKLLDTMVDTFLQKLVAAGSYQRFTDCYKCFYQLQPAMTQQIYDKFIAQLQTSIREEISDIKEEGNLEAVLNALDKIVEEGKVRKEPAWRPSGIPEKDLHSVMAPYFLQQRDTLRRHVQKQEAENQQLADAVLAGRRQVEELQLQVQAQQQAWQALHREQEELLAVLREPE chain 5 MTSVTRSEIIDEKGPVMSKTHDHQLESSLSPVEVFAKTSASLEMNQGVSEERIHLGSSPKKGGNCDLSHQERLQSKSLHLSPQEQSASYQDRRQSWRRASMKETNRRKSLHPIHQGITELSRSISVDLAESKRLGCLLLSSFQFSIQKLEPFLRDTKGFSLESFRAKASSLSEELKHFADGLETDGTLQKCFEDSNGKASDFSLEASVAEMKEYITKFSLERQTWDQLLLHYQQEAKEILSRGSTEAKITEVKVEPMTYLGSSQNEVLNTKPDYQKILQNQSKVFDCMEFVMDELQGSVKQLQAFMDESTQCFQKVSVQLGKRSMQQLDPSPARKLLKLQLQNPPAIHGSGSGSCQ [chain 3 R195E, chain 3 V198L, chain 5 L290F], the Kd was 24.8 nM.
